Test [1] concerns the target human B7-H2, full length, expressed on cells (B7-H2+293T cells) (human) (UniProt O75144). The experiment in a line: cell-based or functional assay.
Another test addresses T1, PD-1Ig (Mus musculus, UniProt Q02242).
T1 construct: Ig fusion protein purchased from R&D systems; also called mouse PD-1Ig fusion protein
T1 sequence (fusion protein, looked up): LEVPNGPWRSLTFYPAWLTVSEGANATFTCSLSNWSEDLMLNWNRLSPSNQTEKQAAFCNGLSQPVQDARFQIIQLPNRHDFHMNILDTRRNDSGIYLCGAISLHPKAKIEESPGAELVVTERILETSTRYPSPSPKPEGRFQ
The experiment in a line: CDS well image, 293T cells transfected with the mouse gene, stained with the mouse fusion protein.

Another test addresses T2, ICOSIg (Mus musculus, UniProt Q9WVS0).
T2 construct: Ig fusion protein purchased from R&D systems; also called mouse ICOSIg fusion protein
T2 sequence (fusion protein, looked up): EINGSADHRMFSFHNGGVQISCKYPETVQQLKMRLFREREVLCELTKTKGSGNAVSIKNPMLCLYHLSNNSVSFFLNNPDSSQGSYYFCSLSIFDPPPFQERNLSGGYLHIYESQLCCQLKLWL
Described as above.

Test [2] deals with T3, mouse CD28Ig fusion protein (mouse, UniProt P31041 20-149).
T3 construct: Bought from R&D Systems; Ig (Fc) part not given
T3 sequence (looked up): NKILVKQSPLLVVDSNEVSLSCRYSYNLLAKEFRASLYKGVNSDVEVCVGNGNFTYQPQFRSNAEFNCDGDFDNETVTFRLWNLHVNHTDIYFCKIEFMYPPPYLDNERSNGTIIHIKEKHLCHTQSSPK
The test is described as above.

Test [3] concerns the target T4, mouse CTLA-4Ig fusion protein (mouse, UniProt P09793 36-162).
T4 construct: Bought from R&D Systems; Ig (Fc) part not given
Described as above.

Another test addresses T5, B7-DCIg (Mus musculus, UniProt Q9WUL5).
T5 construct: Ig fusion protein purchased from R&D systems; also called mouse B7-DCIg fusion protein
T5 sequence (fusion protein, looked up): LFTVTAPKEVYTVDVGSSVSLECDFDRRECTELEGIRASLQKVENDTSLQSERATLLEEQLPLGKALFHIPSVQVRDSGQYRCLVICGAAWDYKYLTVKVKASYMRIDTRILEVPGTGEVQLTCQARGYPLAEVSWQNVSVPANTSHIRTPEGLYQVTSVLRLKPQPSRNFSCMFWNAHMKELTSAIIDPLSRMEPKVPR
The description is as above.

In a further test the target is T6, B7-H2Ig (Mus musculus, UniProt Q9JHJ8).
T6 construct: Ig fusion protein purchased from R&D systems; also called mouse B7-H2Ig fusion protein
T6 sequence (fusion protein, looked up): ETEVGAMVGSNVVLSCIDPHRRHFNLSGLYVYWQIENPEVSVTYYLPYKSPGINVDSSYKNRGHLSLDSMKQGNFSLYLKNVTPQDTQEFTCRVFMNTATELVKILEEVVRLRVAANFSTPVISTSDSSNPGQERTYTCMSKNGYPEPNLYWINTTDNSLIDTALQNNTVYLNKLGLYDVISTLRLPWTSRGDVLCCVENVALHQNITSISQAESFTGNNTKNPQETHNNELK
The description is as above.

In the next test the target is T7, B7-H1Ig (Mus musculus, UniProt Q9EP73).
T7 construct: Ig fusion protein purchased from R&D systems; also called mouse B7-H1Ig fusion protein
The description is as above.

For test [4], the target named is T8, human B7-DC expressed on 293T cells (human, UniProt Q9BQ51 20-273).
T8 construct: whole, on cells
T8 sequence (looked up): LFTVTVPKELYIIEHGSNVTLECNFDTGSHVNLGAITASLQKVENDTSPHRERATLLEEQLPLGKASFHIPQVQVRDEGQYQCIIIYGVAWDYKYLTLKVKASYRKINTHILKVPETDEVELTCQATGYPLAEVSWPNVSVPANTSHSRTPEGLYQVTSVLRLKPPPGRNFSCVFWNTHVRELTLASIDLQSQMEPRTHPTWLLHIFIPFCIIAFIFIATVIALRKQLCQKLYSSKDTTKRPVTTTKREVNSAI
The experiment in a line: CDS well image, 293T cells transfected with the human gene, stained with the human fusion protein.

Test [5] has as its target T9, human CD28, full length, expressed on cells (CD28+293T cells) (human, UniProt P10747 19-220).
T9 construct: This id also stands for CD28 on purified human T cells in the functional rows; also called CD28+ cells
Described as above.

The target of test [6] is T10, human B7-1 (CD80) expressed on 293T cells (human, UniProt P33681 35-288).
T10 construct: whole, on cells
T10 sequence (looked up): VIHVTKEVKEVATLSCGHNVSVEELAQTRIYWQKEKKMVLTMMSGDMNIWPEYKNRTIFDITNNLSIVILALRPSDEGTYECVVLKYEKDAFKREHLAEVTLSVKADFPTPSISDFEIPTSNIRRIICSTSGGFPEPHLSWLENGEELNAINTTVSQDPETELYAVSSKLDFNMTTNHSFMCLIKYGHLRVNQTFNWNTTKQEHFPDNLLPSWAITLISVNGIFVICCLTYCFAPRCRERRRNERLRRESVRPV
The test is described as above.

For test [7], the target named is T11, human B7-H2, full length, expressed on cells (B7-H2+293T cells) (human, UniProt O75144 19-302).
T11 construct: This id also stands for endogenous B7-H2 on monocyte-derived dendritic cells in the functional rows; also called ICOSL; ICOSLG
T11 sequence: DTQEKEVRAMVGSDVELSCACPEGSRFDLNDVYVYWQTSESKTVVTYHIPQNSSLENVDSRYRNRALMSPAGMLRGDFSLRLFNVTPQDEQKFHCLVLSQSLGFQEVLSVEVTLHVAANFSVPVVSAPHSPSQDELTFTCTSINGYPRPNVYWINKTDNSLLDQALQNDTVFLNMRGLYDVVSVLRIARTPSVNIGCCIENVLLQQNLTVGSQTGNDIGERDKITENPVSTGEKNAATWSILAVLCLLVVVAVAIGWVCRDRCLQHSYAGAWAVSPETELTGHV
Described as above.

Test [8] concerns the target T12, human B7-2 (CD86, B70) expressed on 293T cells (human, UniProt P42081 24-329).
T12 construct: whole, on cells
T12 sequence (looked up): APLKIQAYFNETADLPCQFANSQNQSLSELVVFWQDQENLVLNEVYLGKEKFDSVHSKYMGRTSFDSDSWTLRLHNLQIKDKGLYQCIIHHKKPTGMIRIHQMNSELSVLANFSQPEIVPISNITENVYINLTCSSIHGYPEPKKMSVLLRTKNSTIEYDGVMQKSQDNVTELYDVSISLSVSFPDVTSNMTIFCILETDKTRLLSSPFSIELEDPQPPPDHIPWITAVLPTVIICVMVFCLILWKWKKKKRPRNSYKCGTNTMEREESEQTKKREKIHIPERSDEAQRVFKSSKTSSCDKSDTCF
The description is as above.

Test [9] concerns the target T13, human B7-H1 expressed on 293T cells (human, UniProt Q9NZQ7 19-290).
T13 construct: whole, on cells
Described as above.

Data on five molecules can be found in patent US20120219559A1 (Johns Hopkins, published 2012).

Some results are limits rather than exact numbers.

T7 sequence (Q9EP73 19-238 limits assumed): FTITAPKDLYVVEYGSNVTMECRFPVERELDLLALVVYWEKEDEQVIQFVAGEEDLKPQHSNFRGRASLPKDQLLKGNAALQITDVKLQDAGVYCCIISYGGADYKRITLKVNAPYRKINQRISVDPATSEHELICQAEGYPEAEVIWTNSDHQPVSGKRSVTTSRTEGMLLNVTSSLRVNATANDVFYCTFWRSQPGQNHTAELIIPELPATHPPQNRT
T13 sequence (Q9NZQ7 19-290): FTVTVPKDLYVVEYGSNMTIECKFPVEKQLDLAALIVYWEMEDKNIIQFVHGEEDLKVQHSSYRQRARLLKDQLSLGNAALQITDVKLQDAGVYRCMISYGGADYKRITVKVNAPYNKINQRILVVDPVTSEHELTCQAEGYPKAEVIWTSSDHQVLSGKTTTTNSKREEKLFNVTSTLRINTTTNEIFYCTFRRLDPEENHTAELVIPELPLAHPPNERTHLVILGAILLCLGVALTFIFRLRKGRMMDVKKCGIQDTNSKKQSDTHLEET
T9 sequence (P10747 19-220): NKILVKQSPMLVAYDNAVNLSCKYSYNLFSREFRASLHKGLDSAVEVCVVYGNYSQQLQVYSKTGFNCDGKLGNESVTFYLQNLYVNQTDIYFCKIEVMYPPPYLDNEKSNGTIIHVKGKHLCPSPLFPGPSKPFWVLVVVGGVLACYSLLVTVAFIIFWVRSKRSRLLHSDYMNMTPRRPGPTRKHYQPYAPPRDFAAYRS

Take “mouse anti-human B7-H2 mAb 9F.8A4 (antibody)”: in test [1], the tetanus toxoid-elicited IFNγ production of memory T cells; inhibition is above 90% and the tetanus toxoid-elicited proliferation of memory T cells; inhibition was above 50%.

B1: B7-1 (ligand)
chain: VDEQLSKSVKDKVLLPCRYNSPHEDESEDRIYWQKHDKVVLSVIAGKLKVWPEYKNRTLYDNTTYSLIILGLVLSDRGTYSCVVQKKERGTYEVKHLALVKLSIKADFSTPNITESGNPSADTKRITCFASGGFPKPRFSWLENGRELPGINTTISQDPESELYTISSQLDFNTTRNHTIKCLIKYGDAHVSEDFTWEKPPEDPPDSKNTLVLFGAGFGAVITVVVIVVIIKCFCKHRSCFRRNEASRETNNSLTFGPEEALAEQTVFL
Turning to B1, the binding result is listed as “no binding” in the test with PD-1Ig; “no binding” with ICOSIg; “binds” in [2]; “binds” in test [3]; “no binding” with B7-DCIg; “no binding” with B7-H2Ig. Moreover, the binding result with B7-H1Ig was “binds”.

B2: B7-DCIg (Fc fusion, Homo sapiens, UniProt Q9BQ51 20-219, looked up)
fusion protein: LFTVTVPKELYIIEHGSNVTLECNFDTGSHVNLGAITASLQKVENDTSPHRERATLLEEQLPLGKASFHIPQVQVRDEGQYQCIIIYGVAWDYKYLTLKVKASYRKINTHILKVPETDEVELTCQATGYPLAEVSWPNVSVPANTSHSRTPEGLYQVTSVLRLKPPPGRNFSCVFWNTHVRELTLASIDLQSQMEPRTHP
notes: Ig fusion protein purchased from R&D systems; also called human B7-DCIg fusion protein
As for B2, the binding result in test [4], in test [5], in test [6], in test [7], in test [8] and in test [9] was “no binding” each time.

B3: B7-2 (ligand)
chain: VSVETQAYFNGTAYLPCPFTKAQNISLSELVVFWQDQQKLVLYEHYLGTEKLDSVNAKYLGRTSFDRNNWTLRLHNVQIKDMGSYDCFIQKKPPTGSIILQQTLTELSVIANFSEPEIKLAQNVTGNSGINLTCTSKQGHPKPKKMYFLITNSTNEYGDNMQISQDNVTELFSISNSLSLSFPDGVWHMTVVCVLETESMKISSKPLNFTQEFPSPQTYWKEITASVTVALLLVMLLIIVCHKKPNQPSRPSNTASKLERDSNADRETINLKELEPQIASAKPNAE
B3: the binding result with PD-1Ig was “no binding”; in the test with ICOSIg it was “no binding”; in [2], “binds”; in test [3], “binds”; with B7-DCIg, “no binding”; with B7-H2Ig it was “no binding”. The binding result with B7-H1Ig was “no binding”.

B4: B7-DC (ligand, Mus musculus, UniProt Q9WUL5 20-247, looked up)
membrane protein: LFTVTAPKEVYTVDVGSSVSLECDFDRRECTELEGIRASLQKVENDTSLQSERATLLEEQLPLGKALFHIPSVQVRDSGQYRCLVICGAAWDYKYLTVKVKASYMRIDTRILEVPGTGEVQLTCQARGYPLAEVSWQNVSVPANTSHIRTPEGLYQVTSVLRLKPQPSRNFSCMFWNAHMKELTSAIIDPLSRMEPKVPRTWPLHVFIPACTIALIFLAIVIIQRKRI
In the case of B4, the binding result with B7-H2Ig is “no binding”.
